According to patent publication US7105484 (Genentech, dated 2006):

Target: T1, GDNFRα (full length, GPI-linked, expressed on cells) (rat, UniProt Q62997 25-430)
T1 construct: also called GDNF receptor α; recombinant GDNFRα
T1 sequence: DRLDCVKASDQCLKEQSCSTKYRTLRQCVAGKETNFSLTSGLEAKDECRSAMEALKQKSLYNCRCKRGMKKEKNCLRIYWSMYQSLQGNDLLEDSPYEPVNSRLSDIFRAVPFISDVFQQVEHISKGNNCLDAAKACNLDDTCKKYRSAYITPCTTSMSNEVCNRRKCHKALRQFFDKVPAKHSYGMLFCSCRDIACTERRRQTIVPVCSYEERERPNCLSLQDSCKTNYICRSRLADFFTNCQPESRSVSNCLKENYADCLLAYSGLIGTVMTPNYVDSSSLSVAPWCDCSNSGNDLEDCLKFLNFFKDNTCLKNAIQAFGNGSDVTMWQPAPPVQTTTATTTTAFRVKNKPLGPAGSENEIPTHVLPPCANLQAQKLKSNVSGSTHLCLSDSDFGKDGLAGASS
Test: competition binding of 50 pM 125I GDNF against cold GDNF on CHO cells stably expressing GDNFRα; Scatchard analysis, IGOR program
Source text: Competition binding experiments further indicate that GDNF binds specifically and reversibly to GDNFRα expressing cells. […] The IGOR program was used to determine K_d.

Kd: ~0.063 nM
B1: GDNF (Glial-cell Derived Neurotrophic Factor) (ligand)
chain: SPDKQMAVLPRRERNRQAAAANPENSRGKGRRGQRGKNRGCVLTAIHLNVTDLGLGYETKEELIFRYCSGSCDAAETTYDKILKNLSRNRRLVSDKVGQACCRPIAFDDDLSFLDDNLVYHILRKHSAKRCGCI
modifications: The tracer form is 125I-iodinated, and the iodinated residues are not stated. Per our card (not shown to me), active GDNF is a disulfide-bonded homodimer; one protomer is given.
